The values that follow come from patent US20090275047A1 (published 2009).

This data set deals with the molecule itself. The data set can be described thus: X-ray crystal structure; crystal lattice contact between symmetry-related molecules.

B1: human soluble adenylate cyclase catalytic domain, construct solAC-2056 (M1-V469 with non-cleavable C-terminal His6 tag) (enzyme)
chain: MNTPKEEFQDWPIVRIAAHLPDLIVYGHFSPERPFMDYFDGVLMFVDISGFTAMTEKFSSAMYMDRGAEQLVEILNYHISAIVEKVLIFGGDILKFAGDALLALWRVERKQLKNIITVVIKCSLEIHGLFETQEWEEGLDIRVKIGLAAGHISMLVFGDETHSHFLVIGQAVDDVRLAQNMAQMNDVILSPNCWQLCDRSMIEIESVPDQRAVKVNFLKPPPNFNFDEFFTKCTTFMHYYPSGEHKNLLRLACTLKPDPELEMSLQKYVMESILKQIDNKQLQGYLSELRPVTIVFVNLMFEDQDKAEEIGPAIQDAYMHITSVLKIFQGQINKVFMFDKGCSFLCVFGFPGEKVPDELTHALECAMDIFDFCSQVHKIQTVSIGVASGIVFCGIVGHTVRHEYTVIGQKVNLAARMMMYYPGIVTCDSVTYNGSNLPAYFFKELPKKVMKGVADSGPLYQYWGRTEKVHHHHHH
modifications: possible acetylation of the N-terminus at Met1 (electron density peak, not modelled)
notes: Expressed in Hi 5 insect cells and crystallised in space group P63; The protein-protein contact recorded is between symmetry-related copies of this molecule in the crystal; also called construct 2056; solAC catalytic domain
For B1, the binding result is on record as “binds”.
